# From patent publication US20220177587A1, “METHODS AND USES OF VARIANT CD80 FUSION PROTEINS AND RELATED CONSTRUCTS” (Alpine Immune Sciences, Inc., priority 2018, published 2022)
# Like-named read-outs stand apart in the source and are kept apart here.
# Assays:
# CD28 (human) [1] = target: CD28 (human) (UniProt P10747)
# PD-L1 (human) [2] = target: PD-L1 (human) (UniProt Q9NZQ7)
# Target sequence in this assay (Q9NZQ7 19-290): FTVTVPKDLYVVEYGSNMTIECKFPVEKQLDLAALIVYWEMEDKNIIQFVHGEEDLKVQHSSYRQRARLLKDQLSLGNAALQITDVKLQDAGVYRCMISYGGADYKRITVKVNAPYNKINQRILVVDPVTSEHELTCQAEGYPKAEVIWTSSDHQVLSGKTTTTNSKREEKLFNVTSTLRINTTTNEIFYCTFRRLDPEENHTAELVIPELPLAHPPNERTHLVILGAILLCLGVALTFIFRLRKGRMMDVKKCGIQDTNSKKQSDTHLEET
# PD-L1 (human) [3] = target: PD-L1 (human) (UniProt Q9NZQ7); assay: flow cytometry, CHO cells expressing PD-L1
# Target sequence in this assay (Q9NZQ7 19-290): as above
# CD28 (human) [4] = target: CD28 (human) (UniProt P10747); assay: flow cytometry, Jurkat cells (CD28)
# CD28 (human) [5] = target: CD28 (human) (UniProt P10747); assay: flow cytometry, Jurkat cells (CD28); remark: listed apart in the source
# PD-L1 (human) [6] = target: PD-L1 (human) (UniProt Q9NZQ7); assay: flow cytometry, CHO cells stably expressing PD-L1
# human CTLA-4 (human) = human CTLA-4 (human) (UniProt P16410); assay: flow cytometry, CHO cells stably expressing CTLA4
# Sequence of human CTLA-4 (human) (P16410 36-223): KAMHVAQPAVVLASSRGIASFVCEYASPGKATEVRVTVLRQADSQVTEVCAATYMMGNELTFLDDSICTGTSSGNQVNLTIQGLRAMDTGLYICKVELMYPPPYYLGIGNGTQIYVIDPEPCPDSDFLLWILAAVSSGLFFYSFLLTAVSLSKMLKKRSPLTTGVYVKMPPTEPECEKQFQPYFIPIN
"Jurkat/IL2 reporter RLU at 50 nM, K562/OKT3/PD-L1 aAPC (CD28 (human) [1]) [RLU]","Jurkat/IL2 reporter RLU at 50 nM, K562/OKT3/PD-L1 aAPC (PD-L1 (human) [2]) [RLU]",MFI at 33.3 nM (CD28 (human) [5]) [MFI],MFI at 33.3 nM (PD-L1 (human) [6]) [MFI],MFI at 33.3 nM (human CTLA-4 (human)) [MFI],Substance,other results
498,498,–,–,–,CD80 A26E/E35D/M43I/M47L/L85Q/K86E/R94W IgV-Fc (inert) (Fc fusion),–
526,526,–,–,–,CD80 A26E/E35D/M43T/M47L/L85Q/R94Q IgV-Fc (inert) (Fc fusion),–
476,476,–,–,–,CD80 A26E/Q33L/E35D/M47L IgV-Fc (inert) (Fc fusion),–
416,416,–,–,–,CD80 A26E/Q33L/E35D/M47L/L85Q IgV-Fc (inert) (Fc fusion),–
500,500,–,–,–,CD80 A26E/Q33R/E35D/M47L/L85Q IgV-Fc (inert) (Fc fusion),–
569,569,–,–,–,CD80 A26E/Q33R/E35D/M47L/L85Q/K86E IgV-Fc (inert) (Fc fusion),–
1240,1240,–,–,–,CD80 E7D/E35D/M47I/L97Q IgV-Fc (inert) (Fc fusion),–
3240,3240,–,–,–,CD80 E24D/Q33L/E35D/M47V/K54R/L85Q IgV-Fc (inert) (Fc fusion),–
–,–,–,–,–,CD80 E35D/D46E/M47L/V68M/A71G/Y87C/K93R IgV-Fc (Fc fusion),MFI at 33.3 nM (PD-L1 (human) [3]): 24300 MFI
–,–,–,–,–,CD80 E35D/D46E/M47L/V68M/T79M/L85M IgV-Fc (Fc fusion),MFI at 33.3 nM (CD28 (human) [4]): 403 MFI; MFI at 33.3 nM (PD-L1 (human) [3]): 8640 MFI
1090,1090,–,–,–,CD80 E35D/D46E/M47V/L97Q IgV-Fc (inert) (Fc fusion),–
473,473,–,–,–,CD80 E35D/M47I/E77A/L85Q/R94W IgV-Fc (inert) (Fc fusion),–
602,602,–,–,–,CD80 E35D/M47I/K54R/L85E IgV-Fc (inert) (Fc fusion),–
–,–,–,–,–,CD80 E35D/M47I/V68M/Y87N IgV-Fc (Fc fusion),MFI at 33.3 nM (PD-L1 (human) [3]): 13100 MFI
2160,2160,–,–,–,CD80 E35D/M47L/A71G/L97Q IgV-Fc (inert) (Fc fusion),–
576,576,–,–,–,CD80 E35D/M47V/A71G/L85M/L97Q IgV-Fc (inert) (Fc fusion),–
438,438,–,–,–,CD80 E35D/M47V/T62A/A71G/V83A/Y87H/L97M IgV-Fc (inert) (Fc fusion),–
–,–,42.3,6380,–,CD80 ECD-Fc (Fc fusion),–
2650,2650,–,–,–,CD80 H18L/V22A/E35D/M47L/N48T/L85Q IgV-Fc (inert) (Fc fusion),–
408,408,–,–,–,CD80 H18Y/A26E/Q33L/E35D/M47L/L85Q IgV-Fc (inert) (Fc fusion),–

"Jurkat/IL2 reporter RLU at 50 nM, K562/OKT3/PD-L1 aAPC (CD28 (human) [1]) [RLU]","Jurkat/IL2 reporter RLU at 50 nM, K562/OKT3/PD-L1 aAPC (PD-L1 (human) [2]) [RLU]",MFI at 33.3 nM (CD28 (human) [5]) [MFI],MFI at 33.3 nM (PD-L1 (human) [6]) [MFI],MFI at 33.3 nM (human CTLA-4 (human)) [MFI],Substance,other results
2980,2980,–,–,–,CD80 H18Y/E35D/M47L IgV-Fc (inert) (Fc fusion),–
4340,4340,–,–,–,CD80 H18Y/E35D/V68M/L97Q IgV-Fc (inert) (Fc fusion),–
486,486,–,–,–,CD80 H18Y/Q33L/E35D/M47I IgV-Fc (inert) (Fc fusion),–
566,566,–,–,–,CD80 H18Y/V20A/Q33L/E35D/M47V/Y53F IgV-Fc (inert) (Fc fusion),–
455,455,–,–,–,CD80 H18Y/Y31H/E35D/M47V/A71G/L85Q IgV-Fc (inert) (Fc fusion),–
–,–,–,–,–,CD80 IgV-Fc A26E/Q27R/E35D/M47L/N48Y/L85Q (Fc fusion),MFI at 33.3 nM (CD28 (human) [4]): 78 MFI
513,513,–,–,–,CD80 Q27H/E35D/M47L/L85Q/R94Q/E95K IgV-Fc (inert) (Fc fusion),–
551,551,–,–,–,CD80 Q27H/Q33L/E35D/M47V/N55D/L85Q/K89N IgV-Fc (inert) (Fc fusion),–
504,504,–,–,–,CD80 Q33K/E35D/D46V/L85Q IgV-Fc (inert) (Fc fusion),–
415,415,–,–,–,CD80 Q33K/E35D/M47V/K89E/K93R IgV-Fc (inert) (Fc fusion),–
554,554,–,–,–,CD80 Q33L/E35D/D46E/M47I IgV-Fc (inert) (Fc fusion),–
553,553,–,–,–,CD80 Q33L/E35D/M43I/L85Q/R94W IgV-Fc (inert) (Fc fusion),–
473,473,–,–,–,CD80 Q33L/E35D/M43V/M47I/A71G IgV-Fc (inert) (Fc fusion),–
423,423,–,–,–,CD80 Q33L/E35D/M47I IgV-Fc (inert) (Fc fusion),–
–,–,–,–,–,CD80 T13R/E35D/M47L/V68M IgV-Fc (Fc fusion),MFI at 33.3 nM (CD28 (human) [4]): 15.6 MFI; MFI at 33.3 nM (PD-L1 (human) [3]): 20000 MFI
–,–,–,–,–,CD80 V22D/E24D/E35D/M47L/V68M IgV-Fc (Fc fusion),MFI at 33.3 nM (CD28 (human) [4]): 1250 MFI; MFI at 33.3 nM (PD-L1 (human) [3]): 15400 MFI
–,–,–,–,–,CD80 V22D/E24D/E35D/M47L/V68M/L85M/D90G IgV-Fc (Fc fusion),MFI at 33.3 nM (CD28 (human) [4]): 1180 MFI; MFI at 33.3 nM (PD-L1 (human) [3]): 19000 MFI
–,–,1270,14600,22100,variant CD80 IgV-Fc A26E/E35D/M47L/A71G/D90G (Fc fusion),–
–,–,417,27800,24600,variant CD80 IgV-Fc A26E/E35D/M47L/V68M/A71G (Fc fusion),Fold change to WT CD80 (human CTLA-4 (human)): 18.1 fold; Fold change to WT CD80 (PD-L1 (human) [6]): 638 fold
–,–,–,25000,26700,variant CD80 IgV-Fc A26E/E35D/M47L/V68M/D90G (Fc fusion),–

"Jurkat/IL2 reporter RLU at 50 nM, K562/OKT3/PD-L1 aAPC (CD28 (human) [1]) [RLU]","Jurkat/IL2 reporter RLU at 50 nM, K562/OKT3/PD-L1 aAPC (PD-L1 (human) [2]) [RLU]",MFI at 33.3 nM (CD28 (human) [5]) [MFI],MFI at 33.3 nM (PD-L1 (human) [6]) [MFI],MFI at 33.3 nM (human CTLA-4 (human)) [MFI],Substance,other results
–,–,135,12600,–,variant CD80 IgV-Fc A26E/E35D/V68M/A71G (Fc fusion),–
–,–,98.7,1670,3230,variant CD80 IgV-Fc A26E/M47L/V68M/A71G (Fc fusion),–
–,–,2790,28100,21800,variant CD80 IgV-Fc A26E/M47L/V68M/A71G/D90G (Fc fusion),–
–,–,2580,10600,21900,variant CD80 IgV-Fc A26E/M47L/V68M/D90G (Fc fusion),–
–,–,806,27900,24700,variant CD80 IgV-Fc E35D/M47L/V68M/A71G (Fc fusion),Fold change to WT CD80 (human CTLA-4 (human)): 18.1 fold; Fold change to WT CD80 (PD-L1 (human) [6]): 639 fold
–,–,3070,29400,26000,variant CD80 IgV-Fc E35D/M47L/V68M/A71G/D90G (Fc fusion),–
–,–,2840,28000,23300,variant CD80 IgV-Fc E35D/V68M/A71G/D90G (Fc fusion),–
–,–,2000,–,19900,variant CD80 IgV-Fc H18Y/A26E/A71G/D90G (Fc fusion),–
–,–,–,10000,–,variant CD80 IgV-Fc H18Y/A26E/E35D/D90G (Fc fusion),–
–,–,–,16900,–,variant CD80 IgV-Fc H18Y/A26E/E35D/M47L/A71G/D90G (Fc fusion),–
–,–,526,28500,25400,variant CD80 IgV-Fc H18Y/A26E/E35D/M47L/V68M/A71G (Fc fusion),Fold change to WT CD80 (human CTLA-4 (human)): 18.7 fold; Fold change to WT CD80 (PD-L1 (human) [6]): 655 fold
–,–,372,17900,20900,variant CD80 IgV-Fc H18Y/A26E/E35D/V68M (Fc fusion),–
–,–,2560,31700,121,variant CD80 IgV-Fc H18Y/A26E/M47L/V68M/A71G/D90G (Fc fusion),Fold change to WT CD80 (CD28 (human) [5]): 58.2 fold; Fold change to WT CD80 (PD-L1 (human) [6]): 727 fold
–,–,–,11900,22400,variant CD80 IgV-Fc H18Y/E35D/M47L/A71G (Fc fusion),–
–,–,1270,13300,23000,variant CD80 IgV-Fc H18Y/E35D/M47L/A71G/D90G (Fc fusion),Fold change to WT CD80 (human CTLA-4 (human)): 16.9 fold; Fold change to WT CD80 (PD-L1 (human) [6]): 306 fold
–,–,3390,27400,–,variant CD80 IgV-Fc H18Y/E35D/M47L/V68M/D90G (Fc fusion),–
–,–,2720,30100,24300,variant CD80 IgV-Fc H18Y/E35D/V68M/A71G/D90G (Fc fusion),–
–,–,1600,10800,18200,variant CD80 IgV-Fc H18Y/M47L/A71G/D90G (Fc fusion),–
–,–,1190,28500,–,variant CD80 IgV-Fc H18Y/M47L/V68M/A71G (Fc fusion),–
–,–,–,29500,22200,variant CD80 IgV-Fc H18Y/M47L/V68M/A71G/D90G (Fc fusion),–
